According to US11945858B2, “Antibodies and antibody fragments against HNAV1.7 channel and their use in pain and cancer indications” (NATIONAL RESEARCH COUNCIL OF CANADA, priority 2018, dated 2024):
“Also recorded” adds a separate entry of the source.

How the values were obtained:
FC5DIE3IR [1] = biological target: T1, FC5DIE3IR (Homo sapiens, UniProt Q15858); test: Evaluation of apparent affinity of purified mAbs in ELISA; type: binding; settings: purified mAb, OD 405 nm
T1 construct: The supernatant was collected and loaded on a 5 ml MabSelect™ SuRe™ column; made in house; host or cells: CHO-3E7 (transient, pTT5 vector), purified from supernatant
Method: Screening. Hybridoma supernatants were screened by ELISA to detect specific binders. To this end, 96-well half-area plates (Costar #3690) were coated with 25 μl of FC5DIE3IR or FC5-VHH or FC5-hFc-1X0 at 5 μg/ml in PBS and incubated overnight at 4° C. Microplates were washed 3 times with PBS, blocked with PBS-BSA 1%, and 25 μl of hybridoma supernatants were added and incubated at 37° C., 5% CO2 for 2 hours. Plates were washed 4 times with PBS-Tween 20 0.05% and incubated for one hour at 37° C., 5% CO2 with 25 μl of secondary antibody alkaline phosphatase conjugated F(ab′)2 goat anti-mouse IgG Fc-gamma specific (Jackson Immunoresearch #115-056-071) diluted 1/3000 in blocking buffer. After 4 washes with PBS-Tween 20 0.05%, 25 μl of a 1 mg/ml pNPP substrate solution was added and further incubated for one hour at 37° C. OD405 nm measurements were done using a microplate reader (Spectramax 340 PC, Molecular Devices).
Evaluation of apparent affinity in ELISA. Purified antibodies were assessed for their binding activity by ELISA in a dose-dependent binding curve. […] The data were analyzed with GraphPad Prism software using one-site specific binding-with Hill slope non-linear regression curve fit model to determine Bmax (maximum specific binding) and Kdapp (concentration needed to achieve a half-maximum binding at equilibrium) for each mAb tested. […]

[2] = tested on: CFA-induced thermal hyperalgesia; test: Hargreaves Model of Hyperalgesia in rats; type: in vivo, rat
Summary of the method: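 Rats aged 4-6 weeks (180-220 g) received 50 μl of complete Freund's adjuvant, an emulsion of heat-killed M. tuberculosis in oil:saline 2:1, into the right hind paw to produce inflammatory pain. Baseline paw withdrawal latency was recorded 48 h later, and test antibodies were then given by intraplantar injection.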

FC5DIE3IR [3] = biological target: T1, FC5DIE3IR; test: Surface Plasmon Resonance of mAbs, FC5DIE3IR; type: binding
Method: (§1) Surface Plasmon Resonance of mAbs. FC5 and FC5DIE3IR proteins were SEC purified using a Superdex 75 column (GE Healthcare) connected to an AKTAPurifier (GE Healthcare) in HBS-EP+ running buffer (10 mM HEPES, pH 7.4, containing 150 mM NaCl, 3 mM EDTA and 0.05% P20) at a flow rate of 1 ml/min. Monomeric eluted peaks were used to flow over Fc-capture 3A8 mAb surfaces. To prepare the 3A8 mAb surfaces, approximately 6000 RUs of anti-mouse IgG (GE Healthcare) was first immobilized on CM5 Series S sensor chips (GE Healthcare) at pH 5.0, using standard amine coupling methods previously reported (Hussack et al., 2011) and according to the manufacturer's instructions (GE Healthcare). HBS-EP running buffer used for SPR experiments. The mAb 3A8 was captured on the anti-mouse IgG surface using 10 μg/ml of mAb, 30 sec contact time and flow rate of 10 μl/min. IMAC-purified DI-D VHH was passed through a Superdex 75 (GE Healthcare) column for SEC purification in HBS-EP buffer (10 mM HEPES, pH 7.4, containing 150 mM NaCl, 3 mM EDTA and 0.005% P20), connected to an AKTAPurifier (GE Healthcare) at a flow rate of 1 ml/min. Test binding experiments of FC5 control and FC5DIE3IR involved flowing 1 μM concentrations of SEC-pure material over the mAb surface at a flow rate of 30 μl/min for 5 min. Surfaces could be regenerated using 10 mM glycine, pH 1.7, with a 120 sec pulse at 20 μl/min. All SPR experiments were evaluated with Biacore T200 Software v 3.0. For kinetic analysis, single cycle kinetic analysis was used by flowing a range of FC5DIE3IR concentrations (320 nM-20 nM) at a flow rate of 30 μl/min, with 600 sec contact time and 1200 sec dissociation. Regeneration conditions were the same as above. Data were fit to a 1:1 binding model and analyzed using the Biacore T200 Software v3.0.
(§2) Surfaces were regenerated by washing with running buffer (HBS-EP). Data were analyzed with BIAevaluation 4.1 software as described (Hussack et al., 2011) and affinities determined using the steady state binding model.
(§3) Surface Plasmon Resonance (SPR) for monoclonal antibodies.

VHH FC5 = test: Surface Plasmon Resonance of mAbs, FC5 control; type: binding; settings: SPR; 25 °C
Sequence of VHH FC5 (as listed by the source): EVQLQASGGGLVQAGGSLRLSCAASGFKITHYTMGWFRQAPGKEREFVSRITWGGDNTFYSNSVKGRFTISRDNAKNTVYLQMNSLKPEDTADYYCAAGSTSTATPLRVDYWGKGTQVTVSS
Method: as §1, §2, §3

B1: 3A8: anti-hNav1.7 mouse monoclonal antibody, IgG2a, k; heavy chain SEQ ID NO: 12, light chain SEQ ID NO: 18 (antibody, V domains shown)
VH: QVQLQQPGAELVKPGASVKLSCKASGYTFTNYWMHWVKQRPGQGLEWIGEINPSNGRANYNEKFKSKATLTVDKSSSTAYMQLSSLTSEDSAVYYCARSPYGYYDYWGQGTTLTVSSAKTTAPSVYPLAP
VL: DVLMTQTPLSLPVSLGDQASISCRSSQSLLHSNGNTYFHWYLQKPGQSPKLLIYKVSNRFFGVPDRFSGSGSGTDFTLKISRVEAEDLGVYFCSQITHVPLTFGAGTKLELKRADAAPTVSIFPPSS
modifications: Heavy chain of the 3A8 antibody without leader sequence; Light chain of the 3A8 antibody without leader sequence
Bmax (maximum specific binding) (FC5DIE3IR [1]): 3.2
Percentage of effect after injection (on left paw withdrawal) ([2]; 50 μg intraplantar, 0 h): 0%
Latency paw withdrawal ([2]; 50 μg intraplantar, 1 h): 6.08 ± 0.70 s
Percentage of effect after injection (on left paw withdrawal) ([2]; 50 μg intraplantar, 1 h): 18.00%
Latency paw withdrawal ([2]; 50 μg intraplantar, 2 h): 7.38 ± 0.67 s
Percentage of effect after injection (on left paw withdrawal) ([2]; 50 μg intraplantar, 2 h): 24.09%
Latency paw withdrawal ([2]; 50 μg intraplantar, 4 h): 6.79 ± 0.50 s
Percentage of effect after injection (on left paw withdrawal) ([2]; 50 μg intraplantar, 4 h): 22.40%
Maximum effect (% Effect) ([2]; 50 μg intraplantar, reached 2 hours after injection): 24.09±3.69%
Percentage of effect after injection (on left paw withdrawal) ([2]; 100 μg intraplantar, 0 h): 0%
Latency paw withdrawal ([2]; 100 μg intraplantar, 1 h): 9.56 ± 0.70 s
Percentage of effect after injection (on left paw withdrawal) ([2]; 100 μg intraplantar, 1 h): 33.96%
Latency paw withdrawal ([2]; 100 μg intraplantar, 2 h): 10.58 ± 0.90 s
Percentage of effect after injection (on left paw withdrawal) ([2]; 100 μg intraplantar, 2 h): 40.55%
Latency paw withdrawal ([2]; 100 μg intraplantar, 4 h): 10.28 ± 1.20 s
Percentage of effect after injection (on left paw withdrawal) ([2]; 100 μg intraplantar, 4 h): 40.18%
Maximum percentage of the effect (% Effect; % MPE) ([2]; 100 μg intraplantar, time of maximum (1, 2 or 4 h)): 40.55±2.20%
Duration of the reversal of hyperalgesia ([2]; 30 mg/kg intravenous): up to 24 h
Reversal of CFA-induced hyperalgesia (in words) ([2]; 30 mg/kg intravenous): able to reverse CFA-induced hyperalgesia
Percentage of the maximum possible effect (% MPE) ([2]; 30 mg/kg intravenous (tail vein), 4 h): 26.60±3.26%
Latency paw withdrawal time ([2]; 3A8 alone 75 μg intraplantar (FIG. 18)): 10.59 ± 0.87 s
Reversal of hyperalgesia (% MPE) ([2]; 3A8 alone 75 μg intraplantar, 4 h): 35.35%±4.44
Latency paw withdrawal ([2]; intraplantar injection, 4 hours after administration (FIG. 10)): 8.50 ± 0.94 s
ka (FC5DIE3IR [3]): 7050 M⁻¹ s⁻¹
kd (FC5DIE3IR [3]): 0.000259 s⁻¹
Rmax (RU) (FC5DIE3IR [3]; Fc-captured mAb, FC5-DIE3IR flowed, 25 °C): 80 RU
Binding to FC5DIE3IR (comment, in words) (FC5DIE3IR [3]; SPR, 25 °C): bound specifically FC5DIE3IR; also recorded: strong and specific binding; also recorded: strongly and specifically bound; also recorded: extremely slow off rate
Binding to FC5 control (comment, in words) (VHH FC5): did not bind FC5; also recorded: No binding
